By Kd is commonly meant a measure of binding affinity in units of concentration.

Numbering of substitutions follows the chain as printed. Where no end group is shown, it is not given here.

In experiment [1] the target is T1, Insulin-like Growth Factor receptor (UniProt P08069 31-1367, limits assumed).
T1 construct: Captured on antibody-coated microtiter plates; the construct is not described; also called IGFR; IGF Type I receptor
Description: competitive displacement of labelled ligand, receptor captured on anti-FLAG IgG plate, two-site sequential model. As for the experimental part:
DNA for transfection was prepared according to the method of Mynarcik et al. (J. Biol. Chem., 1997, 272, pp 18650-18655). The receptor cDNAs were expressed transiently in PEAK rapid cells using polyethyleneimine. Cells were harvested by lysis in 0.15M NaCl and 0.1M Tris (pH 8) containing 1% (v/v) Triton X-100 and protease inhibitor cocktail three days post-transfection. Lysates were stored at −80° C. until assay. Receptor-binding assays were performed as described by Mynarcik. Microtiter strip plates (Nunc Maxisorb) were incubated overnight at 4° C. with anti-FLAG IgG ([…] in PBS). Washing, blocking, receptor binding and competitive binding assays with labeled and unlabeled peptides were performed as described.

The target in experiment [2] is T1, Insulin-like Growth Factor receptor. Description: competitive displacement of 125I-IGF-1 from IGFR.

B1: single chain insulin (SCI) that is wild type at position B10 (His^A8, Asp^B28, Pro^B29) (ligand)
chain: FVNQHLCGSHLVEALYLVCGERGFFYTDPTGGGPRRGIVEQCCHSICSLYQLENYCN
notes: also called A8-His, B28-Asp, B29-Pro SCI; SCI not containing the Asp^B10 substitution
For B1, the Kd in experiment [1] and in experiment [2] was 27.6 nM in each case.

B2: 57 mer single-chain insulin analogue (His^A8, Asp^B10, Asp^B28, Pro^B29; GGGPRR linker) (ligand)
chain: B1 chain with H10D
modifications: ends and bridges not checked; cysteine pairing not given here
notes: also called 57mer single-chain analogue; 57-mer single-chain Analog
For B2, the Kd in experiment [1] stood at 9.89 nM.

The values above are taken from patent US20120316107A1 (CASE WESTERN RESERVE UNIVERSITY, published 2012).
